# From patent US20220135656A1
# How the values were obtained:
# oat proteins (oat) [1] = test: indirect ELISA on coated Oat, duplicate 1
# oat proteins (oat) [2] = test: indirect ELISA on coated Oat, duplicate 2
# [3] = target: rye proteins (rye prolamins) (rye); test: indirect ELISA on coated Rye, duplicate 1
# [4] = target: rye proteins (rye prolamins) (rye); test: indirect ELISA on coated Rye, duplicate 2
# [5] = target: wheat proteins (wheat prolamins) (wheat); test: indirect ELISA on coated Wheat, duplicate 1
# [6] = target: wheat proteins (wheat prolamins) (wheat); test: indirect ELISA on coated Wheat, duplicate 2
# [7] = target: 33-mer gluten specific peptide (wheat); test: indirect ELISA on coated 33-Mer, duplicate 1
# Chain of 33-mer gluten specific peptide (wheat) (peptide, as listed by the source): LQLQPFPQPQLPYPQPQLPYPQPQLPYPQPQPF
# [8] = target: 33-mer gluten specific peptide (wheat); test: indirect ELISA on coated 33-Mer, duplicate 2
# [9] = target: barley proteins (barley prolamins) (barley); test: indirect ELISA on coated Barley, duplicate 1
# [10] = target: barley proteins (barley prolamins) (barley); test: indirect ELISA on coated Barley, duplicate 2
# PWG-gliadin (wheat) = test: SPR, Biacore T200; Glutenin amine-coupled to the chip, antibody as analyte 20-320 nM; 1:1 binding fit; Chi2 1.1 RU2, U-value 5
substance,measurement,setting,value
R5 monoclonal antibody,ELISA absorbance at 0 ng/ml antibody (blank),oat proteins (oat) [1],0.043
same,ELISA absorbance at 0.8 ng/ml antibody,oat proteins (oat) [1],0.041
same,ELISA absorbance at 4 ng/ml antibody,oat proteins (oat) [1],0.042
same,ELISA absorbance at 20 ng/ml antibody,oat proteins (oat) [1],0.043
same,ELISA absorbance at 0 ng/ml antibody (blank),oat proteins (oat) [2],0.044
same,ELISA absorbance at 0.8 ng/ml antibody,oat proteins (oat) [2],0.055
same,ELISA absorbance at 4 ng/ml antibody,oat proteins (oat) [2],0.043
same,ELISA absorbance at 20 ng/ml antibody,oat proteins (oat) [2],0.048
same,ELISA absorbance at 0 ng/ml antibody (blank),[3],0.039
same,ELISA absorbance at 0.8 ng/ml antibody,[3],0.165
same,ELISA absorbance at 4 ng/ml antibody,[3],0.651
same,ELISA absorbance at 20 ng/ml antibody,[3],1.56
same,ELISA absorbance at 0 ng/ml antibody (blank),[4],0.042
same,ELISA absorbance at 0.8 ng/ml antibody,[4],0.174
same,ELISA absorbance at 4 ng/ml antibody,[4],0.671
same,ELISA absorbance at 20 ng/ml antibody,[4],1.61
same,ELISA absorbance at 0 ng/ml antibody (blank),[5],0.039
same,ELISA absorbance at 0.8 ng/ml antibody,[5],0.133
same,ELISA absorbance at 4 ng/ml antibody,[5],0.534
same,ELISA absorbance at 20 ng/ml antibody,[5],1.5
same,ELISA absorbance at 0 ng/ml antibody (blank),[6],0.043
same,ELISA absorbance at 0.8 ng/ml antibody,[6],0.133
same,ELISA absorbance at 4 ng/ml antibody,[6],0.534
same,ELISA absorbance at 20 ng/ml antibody,[6],1.52
same,ELISA absorbance at 0 ng/ml antibody (blank),[7],0.04
same,ELISA absorbance at 0.8 ng/ml antibody,[7],0.039
same,ELISA absorbance at 4 ng/ml antibody,[7],0.048
same,ELISA absorbance at 20 ng/ml antibody,[7],0.067
same,ELISA absorbance at 0 ng/ml antibody (blank),[8],0.04
same,ELISA absorbance at 0.8 ng/ml antibody,[8],0.04
same,ELISA absorbance at 4 ng/ml antibody,[8],0.052
same,ELISA absorbance at 20 ng/ml antibody,[8],0.118
same,ELISA absorbance at 0 ng/ml antibody (blank),[9],0.041
same,ELISA absorbance at 0.8 ng/ml antibody,[9],0.165
same,ELISA absorbance at 4 ng/ml antibody,[9],0.63
same,ELISA absorbance at 20 ng/ml antibody,[9],1.62
same,ELISA absorbance at 0 ng/ml antibody (blank),[10],0.042
same,ELISA absorbance at 0.8 ng/ml antibody,[10],0.171
same,ELISA absorbance at 4 ng/ml antibody,[10],0.659
same,ELISA absorbance at 20 ng/ml antibody,[10],1.61
same,Kd,PWG-gliadin (wheat),203 nM
same,koff,PWG-gliadin (wheat),0.0539 s⁻¹
same,kon,PWG-gliadin (wheat),266000 M⁻¹ s⁻¹
